Reference: patent publication US20050277175

Biological target: bovine aggrecan (UniProt P13608)
Sequence (P13608 20-2364): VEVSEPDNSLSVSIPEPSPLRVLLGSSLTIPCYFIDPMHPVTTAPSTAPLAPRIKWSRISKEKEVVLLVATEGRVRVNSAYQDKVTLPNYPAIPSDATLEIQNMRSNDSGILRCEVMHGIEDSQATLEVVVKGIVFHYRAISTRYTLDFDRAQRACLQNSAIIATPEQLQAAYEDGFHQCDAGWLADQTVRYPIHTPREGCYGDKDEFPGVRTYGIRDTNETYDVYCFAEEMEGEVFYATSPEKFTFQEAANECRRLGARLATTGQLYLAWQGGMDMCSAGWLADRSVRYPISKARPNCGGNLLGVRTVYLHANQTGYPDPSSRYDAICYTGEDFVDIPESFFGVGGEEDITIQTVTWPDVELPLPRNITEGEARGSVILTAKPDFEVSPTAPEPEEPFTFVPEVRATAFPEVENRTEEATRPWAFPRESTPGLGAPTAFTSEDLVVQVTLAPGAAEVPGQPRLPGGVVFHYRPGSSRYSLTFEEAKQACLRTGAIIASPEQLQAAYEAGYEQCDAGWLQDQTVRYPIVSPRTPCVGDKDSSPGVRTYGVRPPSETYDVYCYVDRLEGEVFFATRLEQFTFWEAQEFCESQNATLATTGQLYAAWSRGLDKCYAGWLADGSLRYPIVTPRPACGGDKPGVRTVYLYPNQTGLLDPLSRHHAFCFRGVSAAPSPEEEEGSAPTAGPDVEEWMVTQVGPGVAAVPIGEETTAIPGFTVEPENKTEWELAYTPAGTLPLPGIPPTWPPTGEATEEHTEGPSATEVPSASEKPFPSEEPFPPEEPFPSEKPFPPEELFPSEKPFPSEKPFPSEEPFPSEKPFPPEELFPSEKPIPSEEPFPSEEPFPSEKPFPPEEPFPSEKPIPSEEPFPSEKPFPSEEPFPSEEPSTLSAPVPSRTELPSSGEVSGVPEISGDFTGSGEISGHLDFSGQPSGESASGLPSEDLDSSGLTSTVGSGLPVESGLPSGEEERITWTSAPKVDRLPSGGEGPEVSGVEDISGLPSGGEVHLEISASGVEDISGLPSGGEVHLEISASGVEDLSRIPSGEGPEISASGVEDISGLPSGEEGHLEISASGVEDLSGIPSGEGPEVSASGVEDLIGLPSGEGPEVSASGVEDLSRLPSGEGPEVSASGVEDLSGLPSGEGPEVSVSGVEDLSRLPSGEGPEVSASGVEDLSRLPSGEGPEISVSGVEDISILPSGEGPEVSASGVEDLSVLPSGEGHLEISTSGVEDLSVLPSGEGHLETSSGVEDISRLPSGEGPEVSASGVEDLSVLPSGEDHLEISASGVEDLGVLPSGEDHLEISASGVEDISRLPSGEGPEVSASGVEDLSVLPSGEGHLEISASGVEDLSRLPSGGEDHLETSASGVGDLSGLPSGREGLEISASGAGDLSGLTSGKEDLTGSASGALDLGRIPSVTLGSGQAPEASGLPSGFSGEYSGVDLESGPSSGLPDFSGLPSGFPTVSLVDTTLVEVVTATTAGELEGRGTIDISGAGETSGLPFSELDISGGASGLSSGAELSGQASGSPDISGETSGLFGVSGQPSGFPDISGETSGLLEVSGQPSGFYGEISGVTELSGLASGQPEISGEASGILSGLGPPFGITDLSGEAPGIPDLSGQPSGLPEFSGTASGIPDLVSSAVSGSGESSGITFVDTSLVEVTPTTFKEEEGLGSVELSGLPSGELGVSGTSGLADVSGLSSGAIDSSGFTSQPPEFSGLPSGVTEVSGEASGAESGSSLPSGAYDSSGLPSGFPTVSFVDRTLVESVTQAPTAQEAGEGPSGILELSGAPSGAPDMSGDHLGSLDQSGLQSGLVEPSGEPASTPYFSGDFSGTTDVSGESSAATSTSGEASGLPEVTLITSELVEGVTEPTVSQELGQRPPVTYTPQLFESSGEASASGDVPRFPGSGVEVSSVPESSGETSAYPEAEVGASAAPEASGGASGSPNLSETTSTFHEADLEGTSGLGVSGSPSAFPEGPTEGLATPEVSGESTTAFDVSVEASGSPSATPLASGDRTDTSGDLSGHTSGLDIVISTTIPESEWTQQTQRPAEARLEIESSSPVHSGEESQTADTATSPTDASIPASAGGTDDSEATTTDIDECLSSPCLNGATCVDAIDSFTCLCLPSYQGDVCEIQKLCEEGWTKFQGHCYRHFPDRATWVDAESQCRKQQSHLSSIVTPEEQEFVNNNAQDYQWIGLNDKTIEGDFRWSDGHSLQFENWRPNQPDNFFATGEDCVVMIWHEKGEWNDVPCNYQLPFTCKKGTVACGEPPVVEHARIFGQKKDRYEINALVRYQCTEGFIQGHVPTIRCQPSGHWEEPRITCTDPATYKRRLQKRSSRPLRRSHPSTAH

Substance: recombinant aggrecanase 1 protein (ADAMTS-4)
- aggrecanase activity (digestion of bovine aggrecan, neoepitope Western blot with C1 MAb): Positive control is recombinant aggrecanase 1 protein (ADAMTS-4)
